Test results published in article PMC12597101.

System: 151AmF-GFP (azide-exposed GFP, protein part of RGG/DGG) (synthetic (codon-optimized GFP, expressed in E. coli NiCo21(DE3)))
Experiment: EMSA (SDS-PAGE gel shift)
Settings: clicked to AmF-GFP, 59 pmol GFP + 59 pmol guide, SPAAC at 4 C for 1.5 h, then equal volume of target, 20 min at room temperature, 15% SDS-PAGE, protein stored in 50 mM HEPES …

Sequence	binding signal (DGG (covalent DNA guide), DBCO on guide DNA)	binding signal (RGG (covalent RNA guide), DBCO on guide RNA)
TAACCCTAACCCTAACCCTAACCCTA / GCUAGAUCCGUAGGGUUAGGGUUAGGGUUAGGGUUAACCUCCGACC [Tel26-DBCO-DNA guide + Target RNA [Tel26]]	86 % bound	–
UAACCCUAACCCUAACCCUAACCCUA / GCUAGAUCCGUAGGGUUAGGGUUAGGGUUAGGGUUAACCUCCGACC [Tel26-DBCO-RNA guide + Target RNA [Tel26]]	–	88 % bound
